{"source": "patent US20220169732A1", "about": "(BIOND BIOLOGICS, published 2022)", "binders": {"B1": {"name": "antibody M9 (antibody, V domains shown)", "VH": "DVKLVESGGGLVKLGGSLKLSCVASGFTFSSYYMSWVRQTPEKRLEWVATISDGGDNTYYAGTVTGRFTISRDFAKNTLYLQMNSLTSEDTAVYYCARIHWPYYFDSWGQGTTLTVSS", "VL": "QFVLSQSPAILSASPGEMLTMTCRASSSVSYMNWYQQKPGSSPKPWIYATSDLASGVPARFSGSGSGTSYSLTISRVEAEDAATYYCQQWSSHPPTFGGGTKLEIR", "notes": "Full-size mouse antibody raised in CD1 mice against the dimeric stalk peptide; detected with anti mouse IgG; also called clone M9; anti-cleavage antibody M9"}}, "molecular_target": "T1, BSA conjugated CD28 stalk region dimeric peptide (also: dimer through the cysteine, BSA conjugated via C-terminal Lys by hydrazide chemistry)", "T1 peptide": "GKHLCPSPLFPGPSKPK", "experiment": "ELISA", "note": "Where no end group is shown, it is not given here.", "data": [{"binder": "B1", "values": [{"measurement": "IC50", "value": 9, "unit": "ng/mL"}]}]}
